The record followed here is patent US20110301073, “Novel DNA-binding proteins and uses thereof” (Sangamo BioSciences, Inc., published 2011).

For the data set, the target named is T1, NT-L +278 VP16 (R23570V) (Xanthomonas sp. (engineered), UniProt P14727 SEQ:1-1013).
T1 chain: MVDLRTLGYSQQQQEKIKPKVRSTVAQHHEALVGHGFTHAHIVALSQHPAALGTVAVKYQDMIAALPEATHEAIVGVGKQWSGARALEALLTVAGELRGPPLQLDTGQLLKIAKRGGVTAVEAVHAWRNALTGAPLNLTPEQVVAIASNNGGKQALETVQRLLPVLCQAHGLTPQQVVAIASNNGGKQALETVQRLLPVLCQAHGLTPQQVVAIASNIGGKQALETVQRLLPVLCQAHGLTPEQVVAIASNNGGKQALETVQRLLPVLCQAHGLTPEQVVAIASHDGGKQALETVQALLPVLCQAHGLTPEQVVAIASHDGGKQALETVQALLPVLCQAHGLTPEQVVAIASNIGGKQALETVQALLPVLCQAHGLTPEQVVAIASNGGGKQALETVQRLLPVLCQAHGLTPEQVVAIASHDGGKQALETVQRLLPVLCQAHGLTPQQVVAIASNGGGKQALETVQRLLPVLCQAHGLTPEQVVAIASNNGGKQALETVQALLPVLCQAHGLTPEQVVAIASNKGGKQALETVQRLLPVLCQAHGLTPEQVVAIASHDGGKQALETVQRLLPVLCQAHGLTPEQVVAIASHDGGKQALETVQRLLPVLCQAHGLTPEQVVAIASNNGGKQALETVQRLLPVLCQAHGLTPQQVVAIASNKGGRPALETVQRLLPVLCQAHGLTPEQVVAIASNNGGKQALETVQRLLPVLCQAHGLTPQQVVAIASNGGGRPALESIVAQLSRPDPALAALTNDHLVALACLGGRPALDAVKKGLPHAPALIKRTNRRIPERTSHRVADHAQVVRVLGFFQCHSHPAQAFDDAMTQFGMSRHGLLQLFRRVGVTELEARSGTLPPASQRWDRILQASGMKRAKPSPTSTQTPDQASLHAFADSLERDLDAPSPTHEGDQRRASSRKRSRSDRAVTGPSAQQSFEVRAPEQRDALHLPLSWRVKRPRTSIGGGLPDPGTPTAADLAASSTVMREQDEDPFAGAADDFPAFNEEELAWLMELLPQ
As to the kind of experiment: cell_activity; luciferase reporter with 2 sites. Conditions: tags: VP16.

B1: NT-L target (NTF3 promoter) (dsDNA)
DNA 1: GGAGCCATCTGGCCGGGT
DNA 2: ACCCGGCCAGATGGCTCC
Consider B1, for which the activity stood at 74.5 fold activation.
